Test results published in patent US7985736B2, “High throughput screen utilizing newly discovered intramolecular neuronal calcium channel interactions to discover new analgesics” (The John Hopkins University, priority 2004, dated 2011).
Several values for one entry are separate records, joined by “and”; a condition that tells them apart may be missing. Equal values may be shown once.

B1: NTB: NH3 terminus of N-type channel α1B subunit, residues 1-95, expressed as free peptide (SEQ ID NO.: 1) (protein, listed as Homo sapiens)
chain: MVRFGDELGGRYGGPGGGERARGGGAGGAGGPGPGGLQPGQRVLYKQSIAQRARTMALYNPIPVKQNCFTVNRSLFVFSEDNVVRKYAKRITEWP

Tests used:
[1] = target: T1, N-type (α1B) Ca2+ channels (Homo sapiens, UniProt Q00975); assay: Whole-cell G/Q analysis and prepulse facilitation of recombinant N-type channels coexpressed with peptide in HEK293 cells; format: cell-based; conditions: for Effect on G/Q slope (Gmax-Qmax relation), with Gβγ: peptide coexpressed with channels and Gβγ, Gmax after 100 mV prepulse
T1 construct: transferred by EcoRI and Bgl II sites into the full-length α1B construct; expressed in transfected cells; host or cells: HEK293
T1 sequence (Q00975 whole entry, other chains not shown): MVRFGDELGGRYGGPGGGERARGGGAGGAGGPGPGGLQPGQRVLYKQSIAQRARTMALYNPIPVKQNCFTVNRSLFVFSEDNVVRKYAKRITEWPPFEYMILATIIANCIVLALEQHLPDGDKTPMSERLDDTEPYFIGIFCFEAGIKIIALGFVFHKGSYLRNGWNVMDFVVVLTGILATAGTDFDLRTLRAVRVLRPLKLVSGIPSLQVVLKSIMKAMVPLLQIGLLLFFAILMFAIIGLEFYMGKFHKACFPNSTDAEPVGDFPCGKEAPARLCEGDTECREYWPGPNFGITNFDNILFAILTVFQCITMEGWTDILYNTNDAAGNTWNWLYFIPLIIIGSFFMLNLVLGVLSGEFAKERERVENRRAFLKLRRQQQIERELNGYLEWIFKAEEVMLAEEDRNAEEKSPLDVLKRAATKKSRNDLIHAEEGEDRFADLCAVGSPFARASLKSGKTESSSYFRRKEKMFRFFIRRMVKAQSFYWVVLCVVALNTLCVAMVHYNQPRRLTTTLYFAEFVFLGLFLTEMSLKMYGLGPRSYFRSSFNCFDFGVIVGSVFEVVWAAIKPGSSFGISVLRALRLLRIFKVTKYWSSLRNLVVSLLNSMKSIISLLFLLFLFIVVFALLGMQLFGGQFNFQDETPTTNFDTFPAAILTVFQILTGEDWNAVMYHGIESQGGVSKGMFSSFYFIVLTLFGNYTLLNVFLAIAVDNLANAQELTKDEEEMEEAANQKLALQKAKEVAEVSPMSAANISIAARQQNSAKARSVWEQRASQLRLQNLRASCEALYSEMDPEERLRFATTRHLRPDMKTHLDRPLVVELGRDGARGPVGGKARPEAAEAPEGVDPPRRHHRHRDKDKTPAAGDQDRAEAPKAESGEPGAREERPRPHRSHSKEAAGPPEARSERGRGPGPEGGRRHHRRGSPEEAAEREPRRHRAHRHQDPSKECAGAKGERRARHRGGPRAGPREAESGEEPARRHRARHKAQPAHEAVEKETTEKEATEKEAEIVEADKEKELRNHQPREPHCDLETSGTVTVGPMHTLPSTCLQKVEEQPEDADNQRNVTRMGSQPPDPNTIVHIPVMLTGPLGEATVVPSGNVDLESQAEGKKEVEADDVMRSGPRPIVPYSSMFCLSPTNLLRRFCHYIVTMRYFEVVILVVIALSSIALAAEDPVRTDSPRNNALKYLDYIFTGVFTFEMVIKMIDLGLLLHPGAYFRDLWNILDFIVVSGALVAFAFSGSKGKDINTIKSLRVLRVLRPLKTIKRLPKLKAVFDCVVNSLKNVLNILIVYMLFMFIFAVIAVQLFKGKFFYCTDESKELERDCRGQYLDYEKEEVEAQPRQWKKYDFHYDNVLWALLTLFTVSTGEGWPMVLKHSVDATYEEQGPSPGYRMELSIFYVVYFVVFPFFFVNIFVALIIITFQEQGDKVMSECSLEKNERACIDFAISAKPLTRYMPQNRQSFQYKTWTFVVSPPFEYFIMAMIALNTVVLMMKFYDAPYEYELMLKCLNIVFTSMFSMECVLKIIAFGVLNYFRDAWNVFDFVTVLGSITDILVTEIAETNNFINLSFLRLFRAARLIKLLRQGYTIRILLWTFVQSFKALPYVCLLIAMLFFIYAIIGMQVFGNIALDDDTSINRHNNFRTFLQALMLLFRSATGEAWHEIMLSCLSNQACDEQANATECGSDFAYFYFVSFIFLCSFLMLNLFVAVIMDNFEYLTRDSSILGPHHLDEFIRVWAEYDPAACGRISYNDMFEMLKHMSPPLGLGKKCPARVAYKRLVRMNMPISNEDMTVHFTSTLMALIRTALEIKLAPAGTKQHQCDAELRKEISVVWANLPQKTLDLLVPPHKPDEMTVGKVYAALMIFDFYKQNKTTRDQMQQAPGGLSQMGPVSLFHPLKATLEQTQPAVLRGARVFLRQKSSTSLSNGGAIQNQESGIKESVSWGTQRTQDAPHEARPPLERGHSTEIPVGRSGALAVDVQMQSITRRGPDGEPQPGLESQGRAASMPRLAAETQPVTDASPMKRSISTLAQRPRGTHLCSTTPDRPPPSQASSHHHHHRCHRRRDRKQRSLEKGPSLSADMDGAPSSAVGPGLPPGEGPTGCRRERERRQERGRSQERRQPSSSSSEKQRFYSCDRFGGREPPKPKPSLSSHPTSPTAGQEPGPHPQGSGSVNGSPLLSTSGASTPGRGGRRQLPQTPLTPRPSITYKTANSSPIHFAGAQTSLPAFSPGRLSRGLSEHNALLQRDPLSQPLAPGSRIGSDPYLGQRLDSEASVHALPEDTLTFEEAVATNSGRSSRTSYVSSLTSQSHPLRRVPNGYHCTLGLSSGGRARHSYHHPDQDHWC
T1 sequence (P54290 25-944 partner limits assumed, other chains not shown): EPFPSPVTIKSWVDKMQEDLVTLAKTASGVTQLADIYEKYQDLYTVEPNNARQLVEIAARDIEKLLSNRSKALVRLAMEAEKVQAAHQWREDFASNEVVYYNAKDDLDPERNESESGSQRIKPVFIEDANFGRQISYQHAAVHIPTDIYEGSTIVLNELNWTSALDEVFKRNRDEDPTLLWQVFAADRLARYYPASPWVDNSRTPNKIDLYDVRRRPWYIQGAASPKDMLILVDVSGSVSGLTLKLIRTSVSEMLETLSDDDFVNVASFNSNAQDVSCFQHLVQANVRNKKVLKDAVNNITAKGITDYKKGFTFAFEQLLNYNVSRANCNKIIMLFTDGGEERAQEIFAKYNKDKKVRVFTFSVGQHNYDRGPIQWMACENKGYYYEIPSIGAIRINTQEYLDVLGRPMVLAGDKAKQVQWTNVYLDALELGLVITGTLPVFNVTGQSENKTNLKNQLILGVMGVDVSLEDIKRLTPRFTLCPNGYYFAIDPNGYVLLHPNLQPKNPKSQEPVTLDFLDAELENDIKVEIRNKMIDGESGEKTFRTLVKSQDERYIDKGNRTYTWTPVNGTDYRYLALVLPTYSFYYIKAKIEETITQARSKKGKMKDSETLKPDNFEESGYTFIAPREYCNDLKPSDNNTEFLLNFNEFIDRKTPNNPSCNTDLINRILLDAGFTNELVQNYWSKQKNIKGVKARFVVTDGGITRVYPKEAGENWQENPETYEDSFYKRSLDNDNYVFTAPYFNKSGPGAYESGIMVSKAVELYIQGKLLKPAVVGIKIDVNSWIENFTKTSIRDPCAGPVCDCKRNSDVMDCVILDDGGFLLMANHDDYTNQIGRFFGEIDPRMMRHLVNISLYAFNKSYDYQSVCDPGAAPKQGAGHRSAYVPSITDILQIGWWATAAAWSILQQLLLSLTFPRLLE
T1 sequence (P54290 945-1091 partner limits assumed, other chains not shown): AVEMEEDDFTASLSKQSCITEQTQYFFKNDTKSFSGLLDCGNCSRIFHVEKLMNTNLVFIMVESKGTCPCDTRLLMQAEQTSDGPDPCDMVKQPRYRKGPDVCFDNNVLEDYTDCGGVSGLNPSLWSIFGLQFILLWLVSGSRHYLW
Excerpt: FIG. 3A illustrates an approach for N-type channels without Gβγ coexpression. Exemplar currents activated quickly and were barely facilitated by strong prepulse depolarization (FIG. 3A, left). The slight residual prepulse facilitation reflects basal endogenous Gβγ activation. To estimate open probability, two intermediary parameters were specified. First, to gauge the number of channels in a cell (Nchannel), the channel gating current at the reversal potential for ionic current were isolated (FIG. 3A, middle left) (Jones et al., 1999). The area under this current yields the maximal gating charge Qmax, where Qmax=Nchannel×qmax, and qmax is the maximal gating charge per channel. Second, Gmax for a given cell, the maximal ionic current conductance determined as the slope of the peak current-voltage relation at depolarized potentials were determined (FIG. 3A, middle right, line). Here and throughout, current-voltage relations were determined after a 100 mV prepulse, which transiently relieves all G protein inhibition (Colecraft et al., 2000), thus eliminating these inhibitory effects in the estimate of Gmax. Accordingly, Gmax=Nchannel×Po,max×g, where Po,max is the maximal channel open probability at saturating de-polarization, and g is the conductance of a single open channel. In combination, then, a plot of Gmax versus Qmax for multiple cells ([…]) would describe a linear relation with slope equal to Po,max×g/qmax. Because g and qmax are unchanged by G protein modulation (Colecraft et al., 2001; Jones et al., 1997; Patil et al., 1996), this slope (G/Q=0.44±0.03 nS/fC) is proportional to Po,max . . . FIG. 3B documents the supporting results for N-type channels coexpressed with Gβγ. Gmax determined after prepulse de-polarization, when plotted against Qmax, specifies an identical slope to that without Gβγ (FIG. 3B, right, G/Q=0.43±0.04 nS/fC). […] Free NTB peptide with α1B channels. Initially, an NTB-CFP peptide was employed to visually confirm expression was coexpressed. […] By contrast, coexpressing channels with NTB-CFP and Gβγ produced remarkable effects (FIG. 3D). […] More telling were small ionic current amplitudes despite gating current magnitudes on par with controls (FIG. 3D, middle panels). Consequently, there was a significant ^w6-fold depression of the Gmax-Qmax plot (FIG. 3D, right). If NTB-CFP were simply chelating Gβγ (FIG. 2C), the G/Q slope would be unchanged from control. Instead, the suppression of G/Q indicates constitutive inhibition of channel opening.
Cells were transiently transfected and cultured in 10 cm plates (Brody et al., 1997). For 2+Ca^2+ channels, 8 μg was used of each of cDNAs of the desired a1, rat brain β2a (Perez-Reyes et al., 1992), and rat brain a^28 (Tomlinson et al., 1993) subunits; along with 2 μg T-antigen cDNA. N-type α1B, human origin (NM000718); L-type α1C, rabbit (Wei et al., 1991) (X15539). Gβγ coexpressed with 4 μg each of Gβ1 (Sugimoto et al., 1985) and Gγ2 (Gautam et al., 1990). For coexpression of N-terminal peptides, channel subunit cDNA reduced to 6 μg, while adding 14 μg peptide cDNA. For receptor experiments, 0.5 μg cDNA for m2R (below) applied with other cDNAs.
Whole-cell current records were made with Axopatch 200B (Axon Instruments, Calif.), 1-3 days posttransfection. Pipets, 1.5-3 MΩ before 60-75% series resistance compensation. Internal solution: 135 mM CsMeSO4, 5 mM CsCl, 10 mM EGTA, 10 mM HEPES, 1 mM MgCl2, and 4 mM MgATP. External solution: 150 mM TEAMeSO4, 10 mM HEPES, 2 mM CaCl2, and 1 mM MgCl2. During constitutive inhibition (or as noted for some chimeras), 20 mM BaCl2 was substituted for 2 mM CaCl2, and the resulting solution was diluted 1.08×. To compare across external solutions, a conversion factor of 3.18 was used. Currents and conductances with 20 mM Ba^2+ were thus scaled×1/3.18 to facilitate uniform comparison of values, as if all data had been collected with 2 mM Ca^2+. When applied, conversion is denoted by asterisk (*). […]

[2] = target: T2, I-II loop of α1C (I-IIC) (Oryctolagus cuniculus, UniProt P15381); assay: Yeast two-hybrid assay, NT peptides versus I-IIC; format: binding, rabbit; conditions: NT segment in pGBKT7, I-IIC in pGADT7
T2 construct: I-IIC (436-554)/pGBKT7; expressed in transfected cells; host or cells: AH109 yeast
T2 sequence (P15381 436-554): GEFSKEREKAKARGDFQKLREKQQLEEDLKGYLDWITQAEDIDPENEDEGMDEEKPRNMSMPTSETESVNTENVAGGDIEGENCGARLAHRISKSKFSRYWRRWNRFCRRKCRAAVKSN
Excerpt: For yeast two-hybrid assays, a PCR fragment encoding one partner was fused, in-frame, with the GAL4 DNA binding domain (BD) in pGBKT7 (Clontech, Palo Alto, Calif.). The other element was fused, in-frame, with the GAL4 activation domain (AD) in pGADT7. For specific residues, see Supplemental Data (section 2). For electrophysiology, NT peptides lacking fluorophore tag were PCR amplified and cloned in pcDNA3. NTB peptide residues, 1-95; NTC residues, […]. Throughout, all segments subject to PCR or QuikChange were verified in their entirety by sequencing.
The Matchmaker GAL4 Two-Hybrid System 3 was used (Clontech, Palo Alto, Calif.). AH109 yeast were transformed with pGBKT7/pGADT7-based constructs (Yeastmaker Yeast Transformation System 2 kit, Clontech). After 5-8 days, growth on -leucine/-trytophan plates confirmed transformation of both plasmids. […]
As a ‘medium’ stringency assay, expression of the lacZ gene was tested for encoding β-galactosidase, performing a filter lift with application of blue chromogenic substrate (Clontech-Laboratories, 1999). […] The percentage of colonies that turned blue in the filter lift assay, along with the percentage of colonies that survived on high stringency plates, was recorded for each pairing. […]

Molecule | Effect on G/Q slope (Gmax-Qmax relation), with Gβγ [1] | Effect on G/Q slope and currents, without Gβγ ([1]; peptide coexpressed with channels, absent Gβγ) | Interaction with I-IIC (yeast two-hybrid) [2] | DF (prepulse facilitation) [1] | Induction time of constitutive inhibition after receptor activation [1] | Reversal of constitutive inhibition on removal of carbachol [1] | Functional profile with m2R, absent carbachol ([1]; channels + m2R + NTB peptide, 0 min CCH) | G/Q slope with m2R and carbachol ([1]; channels + m2R + free NTB peptide, carbachol ≧30 min (50 μM CCH)) | Conversion to constitutively reluctant channels ([1]; deduced from DF˜4 via FIG. 7B model, free NTB with Gβγ) | DF (degree of prepulse facilitation) ([1]; free NTB with Gβγ)
NTC: NH3 terminus of L-type channel α1C subunit, free peptide [reference compound] | had no effect | had no effect | failed to reveal an association |  |  |  |  |  |  | 
B1 | identical to those obtained with NTB-CFP |  | failed to reveal an association | 2.64±0.18 | 10 to 15 min and ~10 min | did not reverse inhibition | indistinguishable from control N-type channels | marked suppression of the G/Q slope | ~75% | ~4
